Where two headings read alike, the source gives them in different places. No end group written: not given here. Ahx = NCCCCCC(=O)O
Tests used:
[1] = molecular target: T1, “empty” DQ6-LZ (DQA1*01:02/DQB1*06:02 ectodomains with Fos/Jun leucine zippers, non-covalent heterodimer displayed on yeast through Aga2p); assay: competition; details: chains peptide; modification not given
[2] = molecular target: T2, “empty” DR4-LZ (DRA*01:01/DRB1*04:01 ectodomains with Jun/Fos leucine zippers, non-covalent heterodimer displayed on yeast through Aga2p) (human)
[3] = molecular target: T3, “empty” DR4-LZ (DRA*01:01/DRB1*04:01 ectodomains with Jun/Fos leucine zippers, non-covalent heterodimer displayed on yeast through Aga2p); assay: competition; details: chains peptide; modification not given
[4] = molecular target: T2, “empty” DR4-LZ (DRA*01:01/DRB1*04:01 …); remark: listed apart in the source
[5] = molecular target: T3, “empty” DR4-LZ (DRA*01:01/DRB1*04:01 …); assay: flow; details: chains peptide; modification not given
[6] = molecular target: T1, “empty” DQ6-LZ (DQA1*01:02/DQB1*06:02 …); assay: flow; details: chains peptide; modification not given

Binder: QASGNHAAGILTMGR [HCRT85-99, O43612 85-99]
- IC50 [1]: 25.2 µM

Binder: NRALTGIAVEQDKNTQE (modifications not checked) [S764-780, P0DTC2 764-780]
- % competition [2]: < 50%

Binder: PKYVKQNTLKLAT [non-biotinylated HA306-318]
- IC50 [3]: 66.8 µM

Binder: HGVVFLHVTYVPAQEKN (modifications not checked) [S1058-1074, P0DTC2 1058-1074]
- % competition [4]: 75%

Binder: PKYVKQNTLKLAT [Bio-HA306-318 (biotin-Ahx-…)]
- Kd [5]: 33.2 µM

Binder: MNLPSTKVSWAAVK-{Ahx-biotin} [HCRT1-13-Bio (…-Ahx-biotin)]
- Kd [6]: 12.5 µM

— patent publication US20220381793A1, “COMPOSITIONS AND METHODS FOR IDENTIFYING MHC-II BINDING PEPTIDES” (priority 2021, published 2022)
